The text below walks through data of publication PMC4042526.

For this assay, the target named is Tbx20^eh1mut-EGFP (mouse) (UniProt Q9ES03). Kind of assay: affinity purification with mass spectrometry.
UniProt Q9ES03, sequence (Q9ES03 whole entry F18L/S19I): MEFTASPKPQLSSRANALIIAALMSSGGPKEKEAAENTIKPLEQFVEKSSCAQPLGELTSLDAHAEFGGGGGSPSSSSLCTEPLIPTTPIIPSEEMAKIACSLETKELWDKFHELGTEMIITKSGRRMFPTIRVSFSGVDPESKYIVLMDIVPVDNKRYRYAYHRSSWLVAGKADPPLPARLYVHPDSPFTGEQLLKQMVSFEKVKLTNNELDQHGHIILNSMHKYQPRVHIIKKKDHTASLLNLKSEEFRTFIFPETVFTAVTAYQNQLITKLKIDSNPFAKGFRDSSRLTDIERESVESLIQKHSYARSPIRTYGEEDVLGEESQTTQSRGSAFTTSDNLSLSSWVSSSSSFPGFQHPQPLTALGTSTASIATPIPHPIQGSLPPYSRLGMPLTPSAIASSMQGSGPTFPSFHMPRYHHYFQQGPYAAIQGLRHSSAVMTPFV

Regarding “Transducin-like enhancer of split 3 (from UniProt Q04726 1-772) (natural protein)”, the fold decrease in eh1mut against wild-type Tbx20 (MS1-based) was greater than 10 fold.

The substance “Transducin-like enhancer of split 1 (from UniProt Q04724 1-770) (natural protein)” yielded a fold decrease in eh1mut against wild-type Tbx20 (MS1-based) greater than 10 fold.
